Experimental data as given in paper PMC11257983 (2024).

B1: Flag-CNK^2–549 [Drosophila] / GST-HYP [Drosophila] (parent complex)
chain 1: AYINIAEWTPDQVTDWIKGLDESMKGYLYEFSKQEIGGRALLNIRPYELENLGMLRIGHQEIVLEAVENLRNFHYHLKNDNLQFMALHVATAAKNLHRELARNHAESTKIDTRILHDITRTIATLKPLVGSLERTPFRKQEMYREYCGNVLKCGLELATIAHRDRFALQPVPAIRQSAERLENLANFVIQDISDPMVLQPASLNLVTLKKRESELGFNIESSYNGIHRVTDIKYNSPAHNSGKIEDGDEIVQINYQTVVGWQHRTVLEHLREALPDVVLTVKKRPKHTKMFGQIYMQPYRLPSKKRNMAARWAAQMPSPRAAFLTLDTEQLATGGTGSAVPDPSKSLSSEKREVLTKANPVSSASDSDSSCSDIPTPTDPKLAAREIRLYYPKPRALLQRRNTICGCEYLSLKNSDLVVPSWHERKPGIGSPTNCDPGSPSIRDKSISFGYGLEMAARPTTCIGIAGDTSTDKARRMFHEARKLKQLTEDSQREFLVDRYKPGVSKVVRFDAKEDYVMKNEKFICNVENTILETFEPIPFADEGDEDA
chain 2: MGEETINSTQNKTRTKTTRPKAVYLWTVSDVLKWYRRHCGEYTQYEQLFAQHDITGRALLRITDSSLQRMGVTDNRDREAIWREIVKQRLKTDIMEIRDMERLNIY
B2: Myc-MEK [Drosophila] / V5-KSR [Drosophila] (parent complex)
chain 1: MSKNKLNLVLPPVNTEATVAAATVAPTPPFKTPSGTDTHSLLGKPKTSIDALTETLEGLDMGDTERKRIKMFLSQKEKIGELSDEDLEKLGELGSGNGGVVMKVRHTHTHLIMARKLIHLEVKPAIKKQILRELKVLHECNFPHIVGFYGAFYSDGEISICMEYMDGGSLDLILKRAGRIPESILGRITLAVLKGLSYLRDNHAIIHRDVKPSNILVNSSGEIKICDFGVSGQLIDSMANSFVGTRSYMSPERLQGTHYSVQSDIWSLGLSLVEMAIGMYPIPPPNTATLESIFADNAEESGQPTDEPRAMAIFELLDYIVNEPPPKLEHKIFSTEFKDFVDICLKKQPDERADLKTLLSHPWIRKAELEEVDISGWVCKTMDLPPSTPKRNTSPN
chain 2: MSSNNNAPASAPDTGSTNANDPISGSLSVDSNLVIIQDMIDLSANHLEGLRTQCAISSTLTQQEIRCLESKLVRYFSELLLAKMRLNERIPANGLVPHTTGNELRQWLRVVGLSQGTLTACLARLTTLEQSLRLSDEEIRQLLADSPSQREEEELRRLTRAMQNLRKCMESLESGTAASNNDPEQWHWDSWDRPTHIHRGSVGNIGLGNNSTASPRTHHRQHGVKGKNSALANSTNFKSGRQSPSATEELNSTQGSQLTLTLTPSPPNSPFTPSSGLSSSLNGTPQRSRGTPPPARKHQTLLSQSHVQVDGEQLARNRLPTDPSPDSHSSTSSDIFVDPNTNASSGGSSSNVLMVPCSPGVGHVGMGHAIKHRFTKALGFMATCTLCQKQVFHRWMKCTDCKYICHKSCAPHVPPSCGLPREYVDEFRHIKEQGGYASLPHVHGAAKGSPLVKKSTLGKPLHQQHGDSSSPSSSCTSSTPSSPALFQQRERELDQAGSSSSANLLPTPSLGKHQPSQFNFPNVTVTSSGGSGGVSLISNEPVPEQFPTAPATANGGLDSLVSSSNGHMSSLIGSQTSNASTAATLTGSLVNSTTTTSTCSFFPRKLSTAGVDKRTPFTSEYTDTHKSNDSDKTVSLSGSASTDSDRTPVRVDSTEDGDSGQWRQNSISLKEWDIPYGDLLLLERIGQGRFGTVHRALWHGDVAVKLLNEDYLQDEHMLETFRSEVANFKNTRHENLVLFMGACMNPPYLAIVTSLCKGNTLYTYIHQRREKFAMNRTLLIAQQIAQGMGYLHAREIIHKDLRTKNIFIENGKVIITDFGLFSSTKLLYCDMGLGVPHNWLCYLAPELIRALQPEKPRGECLEFTPYSDVYSFGTVWYELICGEFTFKDQPAESIIWQVGRGMKQSLANLQSGRDVKDLLMLCWTYEKEHRPQFARLLSLLEHLPKKRLARSPSHPVNLSRSAESVF

Variants of: B1
Assay: GST pull-down, immunoblot quantification; S2 cells; only Flag-CNK2–549 and GST-HYP co-expressed; anti-Flag (CNK) blot; parent: 1

Row | Variant | ratio to parent
1 | chain 1 AYINIAEWTPDQVTDWIKGLDESMKGYLYEFSKQEIGGRALLNIRPYELENLGMLRIGHQEIVLEAVENLRNFHYHLKNDNLQFMALHVATAAKELHRELARNHAESTKIDTRILHDITRTIATLKPLVGSLERTPFRKQEMYREYCGNVLKCGLELATIAHRDRFALQPVPAIRQSAERLENLANFVIQDISDPMVLQPASLNLVTLKKRESELGFNIESSYNGIHRVTDIKYNSPAHNSGKIEDGDEIVQINYQTVVGWQHRTVLEHLREALPDVVLTVKKRPKHTKMFGQIYMQPYRLPSKKRNMAARWAAQMPSPRAAFLTLDTEQLATGGTGSAVPDPSKSLSSEKREVLTKANPVSSASDSDSSCSDIPTPTDPKLAAREIRLYYPKPRALLQRRNTICGCEYLSLKNSDLVVPSWHERKPGIGSPTNCDPGSPSIRDKSISFGYGLEMAARPTTCIGIAGDTSTDKARRMFHEARKLKQLTEDSQREFLVDRYKPGVSKVVRFDAKEDYVMKNEKFICNVENTILETFEPIPFADEGDEDA [chain 1 N95E] | 0.99
2 | chain 1 AYINIAEWTPDQVTDWIKGLDESMKGYLYEFSKQEIGGRALLNIRPYELENLGMLRIGHQEIVLEAVENLRNFHYHLKNDWLQFMALHVATAAKNLHRELARNHAESTKIDTRILHDITRTIATLKPLVGSLERTPFRKQEMYREYCGNVLKCGLELATIAHRDRFALQPVPAIRQSAERLENLANFVIQDISDPMVLQPASLNLVTLKKRESELGFNIESSYNGIHRVTDIKYNSPAHNSGKIEDGDEIVQINYQTVVGWQHRTVLEHLREALPDVVLTVKKRPKHTKMFGQIYMQPYRLPSKKRNMAARWAAQMPSPRAAFLTLDTEQLATGGTGSAVPDPSKSLSSEKREVLTKANPVSSASDSDSSCSDIPTPTDPKLAAREIRLYYPKPRALLQRRNTICGCEYLSLKNSDLVVPSWHERKPGIGSPTNCDPGSPSIRDKSISFGYGLEMAARPTTCIGIAGDTSTDKARRMFHEARKLKQLTEDSQREFLVDRYKPGVSKVVRFDAKEDYVMKNEKFICNVENTILETFEPIPFADEGDEDA [chain 1 N81W] | 0.7

Variants of: B1
Assay: GST pull-down, immunoblot quantification; S2 cells; Flag-CNK2–549, V5-KSR, Myc-MEK, GST-HYP co-expressed; anti-CNK blot; parent: 1

Row | Variant | ratio to parent
3 | chain 1 AYINIAEWTPDQVTDWIKGLDESMKGYLYEFSKQEIGGRALLNIRPYELENLGMLRIGHQEIVLEAVENLRNFHYHLKNDNLQFMALHVATAAKELHRELARNHAESTKIDTRILHDITRTIATLKPLVGSLERTPFRKQEMYREYCGNVLKCGLELATIAHRDRFALQPVPAIRQSAERLENLANFVIQDISDPMVLQPASLNLVTLKKRESELGFNIESSYNGIHRVTDIKYNSPAHNSGKIEDGDEIVQINYQTVVGWQHRTVLEHLREALPDVVLTVKKRPKHTKMFGQIYMQPYRLPSKKRNMAARWAAQMPSPRAAFLTLDTEQLATGGTGSAVPDPSKSLSSEKREVLTKANPVSSASDSDSSCSDIPTPTDPKLAAREIRLYYPKPRALLQRRNTICGCEYLSLKNSDLVVPSWHERKPGIGSPTNCDPGSPSIRDKSISFGYGLEMAARPTTCIGIAGDTSTDKARRMFHEARKLKQLTEDSQREFLVDRYKPGVSKVVRFDAKEDYVMKNEKFICNVENTILETFEPIPFADEGDEDA [chain 1 N95E] | 0.82
4 | chain 1 AYINIAEWTPDQVTDWIKGLDESMKGYLYEFSKQEIGGRALLNIRPYELENLGMLRIGHQEIVLEAVENLRNFHYHLKNDWLQFMALHVATAAKNLHRELARNHAESTKIDTRILHDITRTIATLKPLVGSLERTPFRKQEMYREYCGNVLKCGLELATIAHRDRFALQPVPAIRQSAERLENLANFVIQDISDPMVLQPASLNLVTLKKRESELGFNIESSYNGIHRVTDIKYNSPAHNSGKIEDGDEIVQINYQTVVGWQHRTVLEHLREALPDVVLTVKKRPKHTKMFGQIYMQPYRLPSKKRNMAARWAAQMPSPRAAFLTLDTEQLATGGTGSAVPDPSKSLSSEKREVLTKANPVSSASDSDSSCSDIPTPTDPKLAAREIRLYYPKPRALLQRRNTICGCEYLSLKNSDLVVPSWHERKPGIGSPTNCDPGSPSIRDKSISFGYGLEMAARPTTCIGIAGDTSTDKARRMFHEARKLKQLTEDSQREFLVDRYKPGVSKVVRFDAKEDYVMKNEKFICNVENTILETFEPIPFADEGDEDA [chain 1 N81W] | 0.09

Variants of: B2
Assay: anti-V5 immunoprecipitation, immunoblot quantification; S2 cells; V5-KSR and Myc-MEK co-expressed; anti-Myc (MEK) blot; parent: 1

Row | Variant | ratio to parent
5 | chain 1 MSKNKLNLVLPPVNTEATVAAATVAPTPPFKTPSGTDTHSLLGKPKTSIDALTETLEGLDMGDTERKRIKMFLSQKEKIGELSDEDLEKLGELGSGNGGVVMKVRHTHTHLIMARKLIHLEVKPAIKKQILRELKVLHECNFPHIVGFYGAFYSDGEISICMEYMDGGSLDLILKRAGRIPESILGRITLAVLKGLSYLRDNHAIIHRDVKPSNILVNSSGEIKICDFGVSGQLIDSMANSFVGTRSYMSPERLQGTHYSVQSDIWSLGLSLVEMAIGMYPIPPPNTATLESIFADNAEESGQPTDEPRAMAIFELLDYIVNRPPPKLEHKIFSTEFKDFVDICLKKQPDERADLKTLLSHPWIRKAELEEVDISGWVCKTMDLPPSTPKRNTSPN [chain 1 E323R] | 0.82

Variants of: B2
Assay: anti-V5 immunoprecipitation, immunoblot quantification; S2 cells; V5-KSR and Myc-MEK co-expressed; anti-MEK blot; parent: 1

Row | Variant | ratio to parent
6 | chain 2 K903D | 0.46
7 | chain 2 E926R | 1.51
8 | chain 2 W896R | 0.15
9 | chain 2 Y925D | 1.24
10 | chain 2 M902D | 0.9

Variants of: B2
Assay: anti-V5 immunoprecipitation, immunoblot quantification; S2 cells; V5-KSR and Myc-MEK co-expressed; anti-Myc (MEK) blot; parent: 1
Remark: another data set of the same source

Row | Variant | ratio to parent
11 | chain 2 R913E | 1.31
